Test results: publication PMC3650080, “Structural Insights into the UbiD Protein Family from the Crystal Structure of PA0254 from Pseudomonas aeruginosa” (PLoS ONE, 2013)

Key:
[1] = biological target: the molecule itself; assay: crystal structure; two crystal forms of His6-PA0254: P2(1) (1 M (NH4)2SO4, 0.1 M Bis-Tris pH 5.5, 1% PEG 3350; 2.3 Å, four subunits in the asymmetric unit) and P3(2)21 (0.1 M Hepes pH 7.5, 0.2 M MgCl2, 10% PEG 400; 1.95 Å, three subunits); dimer told from crystal packing and PISA
[2] = biological target: the molecule itself; assay: SEC; superdex-200 column (GE-Healthcare) calibrated with Ribonuclease-A, Chymotrypsinogen-A, Ovalbumin, Albumin, Catalase and Ferretin; absorbance at 280 nm

| Protein | stoichiometry N [1] | stoichiometry N [2] |
| --- | --- | --- |
| PA0254 from Pseudomonas aeruginosa (UbiD-like protein) (enzyme, Pseudomonas aeruginosa PAO1, UniProt Q9I6N5 1-496, looked up, PA0254, UbiD-like putative 3-polyprenyl-4-hydroxybenzoate decarboxylase of Pseudomonas aeruginosa PAO1; full-length gene (residues 1-496 modelled); calculated mass of His6-PA0254 57053 Da per subunit; The TEV-cleavable His6 tag was not removed (incomplete cleavage); tag residues -7 to 0 are partly seen in the trigonal crystal; A SeMet-substituted form was used for phasing only; also called UbiD2; …) MNRSALDFRHFVDHLRRQGDLVDVHTEVDANLEIGAITRRVYERRAPAPLFHNIRDSLPGARVLGAPAGLRADRARAHSRLALHFGLPEHSGPRDIVAMLRAAMRAEPIAPRRLERGPVQENVWLGEQVDLTRFPVPLLHEQDGGRYFGTYGFHVVQTPDGSWDSWSVGRLMLVDRNTLAGPTIPTQHIGIIREQWRRLGKPTPWAMALGAPPAALAAAGMPLPEGVSEAGYVGALVGEPVEVVRTQTNGLWVPANTEIVLEGEISLDETALEGPMGEYHGYSFPIGKPQPLFHVHALSFRDQPILPICVAGTPPEENHTIWGTMISAQLLDVAQNAGLPVDMVWCSYEAATCWAVLSIDVQRLAALGTDAAAFAARVAETVFGSHAGHLVPKLILVGNDIDVTEIDQVVWALATRAHPLHDHFAFPQIRDFPMVPYLDAEDKARGSGGRLVINCLYPEQFAGQMRAATASFRHAYPTALRRRVEERWSDYGFGDA | 2 |  |
| UbiD from P. aeruginosa (PA5237) (enzyme, Pseudomonas aeruginosa PAO1, UniProt Q9HTV3 1-488, looked up, PA5237, UbiD (3-polyprenyl-4-hydroxybenzoate decarboxylase) of Pseudomonas aeruginosa PAO1; construct not described; also called UbiD1; bona fide UbiD) MTFKDLRDFIAQLEQRGALKRIQVPISPVLEMTEVCDRTLRAKGPALLFEKPTGFDMPVLGNLFGTPERVALGMGAEDVGALREIGKLLAQLKEPEPPKGLKDAWAKLPMYRKVLSMAPKVLKDAPCQEVVEEGEDVDLGRLPVQTCWPGDVGPLITWGLTVTRGPNKERQNLGIYRQQVIGRNKVIMRWLSHRGGALDYREWCQKHPGQPYPVAVALGADPATILGAVTPVPDTLSEYAFAGLLRGHRTELVKCRGSDLQVPASAEIVLEGVIHPGEMADEGPYGDHTGYYNEVDRFPVFTVERVTRRQKPIYHSTYTGRPPDEPAILGVALNEVFVPILQKQFPEIVDFYLPPEGCSYRMAVVTMKKQYPGHAKRVMLGVWSFLRQFMYTKFVIVTDDDIDARDWNDVIWAITTRMDPKRDTVMIDNTPIDYLDFASPVSGLGSKMGLDATHKWPGETSREWGRAIVKDEAVTRRIDALWSSLGID |  | 6 |
